Source: PMC4212957, “The serodominant secreted effector protein of Salmonella, SseB, is a strong CD4 antigen containing an immunodominant epitope presented by diverse HLA class II alleles” (Immunology, 2014)

Legend:
HLA-DRB1*04:01 = HLA-DRB1*04:01 (Homo sapiens, UniProt P01903+P01911, A100K/A169T/F76Y/I96L/K127E/L162R/M171V/N62H/P40V/Q125Y/R42H/S133A/S149N/S66Y/V115G/V209L/W38E); details: competitive ELISA; ratio IC50 of peptide / IC50 of reference peptide HA 306–318; lower = higher affinity; ratio 20 or less high, 20–100 moderate; three independent experiments
[1] = system: draining lymph node cells of HLA-DR4 transgenic mice; assay: Murine IFN-γ ELISpot, HLA-DR4 transgenic mice primed with SseB; details: mouse, in vivo
Text: Mice transgenic for HLA-DR1 (that is, HLA-DRA1*0101/HLA-DRB1*0101) and HLA-DR4 (that is, HLA-DRA1*0101/HLA-DRB1*0401)[24]–[26] were bred and housed in the Centre for Biological Services at the Hammersmith campus, Imperial College London, UK, in accordance with Home Office regulations and College ethics review. Both transgenic lines are maintained on a C57BL/6 background as homozygotes for knockout of murine MHC Class II H2-Aβ.[27]
HLA-DR1 or HLA-DR4 transgenic mice were primed, by subcutaneous injection into the footpad, with 25 μg of recombinant SseB protein administered as a 1 : 1 emulsion with TiterMax® Gold (CytRx Corporation, Los Angeles, CA). Ten days after priming, popliteal draining lymph nodes were harvested and stimulated, in triplicate, at 2 × 10^5 cells per well with 25 μg of SseB peptide or recombinant protein in pre-coated murine IFN-γ ELISpot plates (2BScientific, Upper Heyford, Oxfordshire, UK). Culture medium was RPMI-1640 containing 2 mM L-glutamine, 50 U/ml penicillin G, 50 μg/ml streptomycin sulphate, 50 μM β-mercaptoethanol and 10% fetal calf serum. Cells were cultured at 37° and in 5% CO2 for 72 hr before assay development using a biotinylated anti-IFN-γ antibody, a horseradish peroxidase detection antibody and TMB substrate (2BScientific). Developed plates were left to dry before spot counting using an AID ELISpot reader (Autoimmun Diagnostika GMBH). Positive epitopes for a given transgenic line were defined as those where more than half of assayed animals gave a greater number of spot-forming cells than 2 SD over the mean of the no protein/peptide control.
Fig 1 Definition of HLA-DR specific T-cell epitopes in DR1 and DR4 transgenic mice. (a) HLA-DR1 (n = 5) and (b) HLA-DR4 (n = 6) mice were footpad primed with ssEB protein in combination with TiterMax® Gold adjuvant. Draining lymph node (DLN) cells were assayed by ELISpot at day 10 for interferon-γ (IFN-γ) T-cell responses to ssEB peptides and protein. A peptide was defined as containing a T-cell epitope for DR1 or DR4 HLA molecules if more than half of the mice assayed gave a greater number of spot-forming cells than 2 SD over the mean of the no peptide/protein control. The 2 SD value for each transgenic line is shown by a dotted line.

HLA-DRB1*12:02 = HLA-DRB1*12:02 (Homo sapiens, UniProt P01903+P01911, A100R/A169T/D57E/D86V/F55L/H45Y/I96F/K41T/L162R/M171V/P40S/Q125H/Q178H/Q39Y/Q99D/R42G/S66L/T262R/V114A/V67L/W38E/Y59H/Y61H/Y89S); assay: Peptide/HLA-DR binding, competitive ELISA; details: ratio IC50 of peptide / IC50 of reference peptide TFR 141–155, lower = higher affinity, ratio 20 or less high, 20–100 moderate, three independent experiments
Experimental: (§1) HLA-DR heterodimers were purified from homozygous Epstein–Barr virus B-lymphoblastoid cell lines (HPA Culture Collections, Salisbury, UK) by affinity chromatography with the monomorphic HLA-DRα monoclonal antibody, L243.[29],[30] Binding of the SseB peptide panel to the HLA-DR molecules HLA-DRB1*01:01, 03:01, 04:01, 07:01, 09:01, 11:01, 12:02, 15:01, 15:02 was assessed by competitive ELISA, as previously described, using an automated workstation.[29],[30] We evaluated the peptide concentration able to prevent binding of 50% of the labelled peptide (IC50). Data were expressed as relative affinity: ratio of the IC50 of the peptide to the IC50 of the reference peptide, which is a high binder to the HLA class II molecule. Unlabelled forms of the biotinylated peptides were used as reference peptides.

HLA-DRB1*15:02 = target: T1, HLA-DRB1*15:02 (Homo sapiens, UniProt P01903+P01911, V115G); assay: Peptide/HLA-DR binding, competitive ELISA; details: ratio IC50 of peptide / IC50 of reference peptide TFR 607–620, lower = higher affinity, ratio 20 or less high, 20–100 moderate, three independent experiments
T1 construct: HLA-DR heterodimers were purified from homozygous Epstein–Barr virus B-lymphoblastoid cell lines; host or cells: homozygous EBV B-lymphoblastoid cell line
Experimental: as §1

HLA-DRB1*03:01 = target: T2, HLA-DRB1*03:01 (Homo sapiens, UniProt P01903+P01911, A100K/A102G/A103R/A169T/F55Y/I96L/K41T/L162R/M171V/P40S/Q125H/Q178H/Q39Y/R42S/S66N/T106N/T262R/W38E/Y61H); assay: Peptide/HLA-DR binding, competitive ELISA; details: ratio IC50 of peptide / IC50 of reference peptide MT2-16, lower = higher affinity, ratio 20 or less high, 20–100 moderate, three independent experiments
T2 construct: HLA-DR heterodimers were purified from homozygous Epstein–Barr virus B-lymphoblastoid cell lines; host or cells: homozygous EBV B-lymphoblastoid cell line
Experimental: as §1

HLA-DRB1*09:01 = target: T3, HLA-DRB1*09:01 (Homo sapiens, UniProt P01903+P01911, A100R/A103E/D57H/D86V/F55Y/F60I/F76Y/I96F/K127E/L162R/M171V/P40D/Q125H/Q99R/R33Q/R42F/S133A/S66N/T210M/V115G/W38K/Y107V/Y59G/Y89S); assay: Peptide/HLA-DR binding, competitive ELISA; details: ratio IC50 of peptide / IC50 of reference peptide CTP 427–441, lower = higher affinity, ratio 20 or less high, 20–100 moderate, three independent experiments
T3 construct: HLA-DR heterodimers were purified from homozygous Epstein–Barr virus B-lymphoblastoid cell lines; host or cells: homozygous EBV B-lymphoblastoid cell line
Experimental: as §1

HLA-DRB1*15:01 = target: T4, HLA-DRB1*15:01 (Homo sapiens, UniProt P01903+P01911); assay: Peptide/HLA-DR binding, competitive ELISA; details: ratio IC50 of peptide / IC50 of reference peptide A3 152–166, lower = higher affinity, ratio 20 or less high, 20–100 moderate, three independent experiments
T4 construct: HLA-DR heterodimers were purified from homozygous Epstein–Barr virus B-lymphoblastoid cell lines; host or cells: homozygous EBV B-lymphoblastoid cell line
Experimental: as §1

HLA-DRB1*01:01 = HLA-DRB1*01:01 (Homo sapiens, UniProt P01903+P01911, A100R/D57E/F55L/F60I/F76Y/I96L/L162R/M171V/P40L/Q125E/R42F/V115G/Y59C); details: competitive ELISA; ratio IC50 of peptide / IC50 of reference peptide HA 306–318; lower = higher affinity; ratio 20 or less high, 20–100 moderate; three independent experiments
HLA-DRB1*11:01 = HLA-DRB1*11:01 (Homo sapiens, UniProt P01903+P01911, A100R/A169T/A87E/I96F/K41T/L162R/M171V/P40S/Q125H/Q178H/Q39Y/Q99D/R42S/S66Y/T262R/V115G/W38E); details: competitive ELISA; ratio IC50 of peptide / IC50 of reference peptide HA 306–318; lower = higher affinity; ratio 20 or less high, 20–100 moderate; three independent experiments
HLA-DRB1*07:01 = HLA-DRB1*07:01 (Homo sapiens, UniProt P01903+P01911, A100R/A102G/A103Q/D57E/D86V/E43K/F76Y/K127E/L162R/M171V/P40G/Q125H/Q99D/R33Q/R42Y/R54Q/S133A/S66F/T210M/V115G/Y107V/Y59L/Y89S); details: competitive ELISA; ratio IC50 of peptide / IC50 of reference peptide HA 306–318; lower = higher affinity; ratio 20 or less high, 20–100 moderate; three independent experiments

Row | Substance | Relative binding affinity of peptide to HLA-DR molecules DRB1*0401 (HLA-DRB1*04:01) | IFN-γ ELISpot recall response / CD4 epitope in HLA-DR4 transgenic mice [1] | Relative binding affinity of peptide to HLA-DR molecules DRB1*1202 (HLA-DRB1*12:02) | Relative binding affinity of peptide to HLA-DR molecules DRB1*1502 (HLA-DRB1*15:02) | Relative binding affinity of peptide to HLA-DR molecules DRB1*0301 (HLA-DRB1*03:01) | Relative binding affinity of peptide to HLA-DR molecules DRB1*0901 (HLA-DRB1*09:01) | Relative binding affinity of peptide to HLA-DR molecules DRB1*1501 (HLA-DRB1*15:01) | Relative binding affinity of peptide to HLA-DR molecules DRB1*0101 (HLA-DRB1*01:01) | Relative binding affinity of peptide to HLA-DR molecules DRB1*1101 (HLA-DRB1*11:01) | Relative binding affinity of peptide to HLA-DR molecules DRB1*0701 (HLA-DRB1*07:01)
1 | 14: SseB overlapping library peptide, residues 131–150 (KLDKGGLQAIKAALDNDANR) [Peptide 14] | 13 | CD4 epitopes detected | 71 | > 3 333 | > 119 | 50 | 10 | 335 | > 278 | 17
2 | 6: SseB overlapping library peptide, residues 51–70 (MVIQAIANNKFIEVQKNAER) [Peptide 6] | 6 | – | 2 | 577 | > 119 | > 689 | 1 | 235 | 8 | 2
3 | 12: SseB overlapping library peptide, residues 111–130 (GILIDGMTIDDYMAKYGDHG) [Peptide 12] | > 145 | – | 105 | 1 826 | 18 | > 689 | 12 | > 4149 | > 278 | 167
4 | 16: SseB overlapping library peptide, residues 151–170 (NTDLMSQGQITIQKMSQELN) [Peptide 16] | > 145 | – | 52 | > 3 333 | > 119 | > 689 | > 270 | 964 | > 278 | > 336
5 | 8: SseB overlapping library peptide, residues 71–90 (ARNTQEKSNEMDEVIAKAAK) [Peptide 8] | > 145 | – | > 136 | > 3 333 | > 119 | > 689 | > 270 | > 4149 | > 278 | > 336
6 | MSSGNILWGSQNPIVFKNSF [Peptide 1] | 12 | – | 3 | > 3 333 | > 119 | > 689 | 7 | 447 | > 278 | 6
7 | 15: SseB overlapping library peptide, residues 141–160 (KAALDNDANRNTDLMSQGQI) [Peptide 15] | > 145 | – | > 136 | > 3 333 | 57 | > 689 | > 270 | > 4149 | > 278 | > 336
8 | 10: SseB overlapping library peptide, residues 91–110 (GDAKTKEEVPEDVIKYMRDN) [Peptide 10] | > 145 | – | > 136 | > 3 333 | > 119 | > 689 | 58 | > 4149 | > 278 | 87
